Source: paper PMC12033333 (Nature Communications, 2025)

B1: MBP-fused phyA^OPM (domain or fragment)
chain: KIDGIQELEAVTSEMVRLIETATVPILAVDSDGLVNGWNTKIAELTGLSVDEAIGKHFLTLVEDSSVEIVKRMLENALEGTEEQNVQFEIKTHLSRADAGPISLVVNACASRDLHENVVGVCFVAHDLTGQKTVMDKFTRIEGDYKAIIQNPNPLIPPIFGTDEFGWCTEWNPAMSKLTGLKREEVIDKMLLGEVFGTQKSCCRLKNQEAFVNLGIVLNNAVTSQDPEKVSFAFFTRGGKYVECLLCVSKKLDREGVVTGVFCFLQLASHELQQALHVQRLAERTAVKRLKALAYIKRQIRNPLSGIMFTRKMIEGTELGPEQRRILQTSALCQKQLSKILDDSDLESIIEGCLDLEMKEFTLNEVLTASTSQVMMKSNGKSVRITNETGEEVMSDTLYGDSIRLQQVLADFMLMAVNFTPSGGQLTVSASLRKDQLGRSVHLANLEIRLTHTGAGIPEFLLNQMFGTEEDVSEEGLSLMVSRKLVKLMNGDVQYLRQAGKSSFIITAELAAANK

Experiments:
Test in all cases: pull-down
SBP-fused phyA^PSM = molecular target: T1, SBP-fused phyA^PSM (Arabidopsis thaliana, UniProt P14712 1-615, chromophore-bound (phycocyanobilin, PCB))
T1 sequence: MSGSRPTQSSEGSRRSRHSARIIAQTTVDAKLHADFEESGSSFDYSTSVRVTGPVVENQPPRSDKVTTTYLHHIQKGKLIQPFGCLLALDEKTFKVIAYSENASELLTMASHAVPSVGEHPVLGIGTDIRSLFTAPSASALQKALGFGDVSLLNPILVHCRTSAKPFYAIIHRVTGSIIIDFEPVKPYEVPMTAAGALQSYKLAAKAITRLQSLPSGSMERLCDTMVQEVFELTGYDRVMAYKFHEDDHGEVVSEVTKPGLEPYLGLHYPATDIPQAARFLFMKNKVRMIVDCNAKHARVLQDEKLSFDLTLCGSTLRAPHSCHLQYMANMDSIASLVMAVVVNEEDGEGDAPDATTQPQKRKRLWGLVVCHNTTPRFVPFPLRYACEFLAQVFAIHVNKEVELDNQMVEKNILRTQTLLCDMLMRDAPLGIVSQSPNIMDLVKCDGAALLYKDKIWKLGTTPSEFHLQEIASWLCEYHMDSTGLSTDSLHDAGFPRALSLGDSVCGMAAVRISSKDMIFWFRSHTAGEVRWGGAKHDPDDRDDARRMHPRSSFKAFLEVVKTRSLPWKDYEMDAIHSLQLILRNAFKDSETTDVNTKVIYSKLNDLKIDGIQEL

GST-PIF3 = molecular target: T2, GST-PIF3 (Arabidopsis thaliana, UniProt O80536 1-524)
T2 sequence: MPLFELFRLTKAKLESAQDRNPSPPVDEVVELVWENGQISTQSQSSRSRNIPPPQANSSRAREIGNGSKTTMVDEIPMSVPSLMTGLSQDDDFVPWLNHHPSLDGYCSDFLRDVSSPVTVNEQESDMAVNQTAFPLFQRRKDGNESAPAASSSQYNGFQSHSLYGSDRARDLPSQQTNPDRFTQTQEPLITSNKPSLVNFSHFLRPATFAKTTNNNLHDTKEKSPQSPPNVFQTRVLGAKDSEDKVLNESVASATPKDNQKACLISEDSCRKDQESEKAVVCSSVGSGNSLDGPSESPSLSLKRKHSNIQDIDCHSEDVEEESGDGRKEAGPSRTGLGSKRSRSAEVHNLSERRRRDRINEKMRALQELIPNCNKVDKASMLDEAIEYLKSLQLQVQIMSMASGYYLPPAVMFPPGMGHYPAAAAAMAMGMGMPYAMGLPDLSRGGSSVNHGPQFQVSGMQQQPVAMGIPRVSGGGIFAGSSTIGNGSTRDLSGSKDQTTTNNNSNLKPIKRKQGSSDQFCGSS

MBP-fused phyA^OPM = molecular target: B1
MBP-fused phyB^OPM = molecular target: T3, MBP-fused phyB^OPM (Arabidopsis thaliana, UniProt P14713 642-1172)
T3 sequence: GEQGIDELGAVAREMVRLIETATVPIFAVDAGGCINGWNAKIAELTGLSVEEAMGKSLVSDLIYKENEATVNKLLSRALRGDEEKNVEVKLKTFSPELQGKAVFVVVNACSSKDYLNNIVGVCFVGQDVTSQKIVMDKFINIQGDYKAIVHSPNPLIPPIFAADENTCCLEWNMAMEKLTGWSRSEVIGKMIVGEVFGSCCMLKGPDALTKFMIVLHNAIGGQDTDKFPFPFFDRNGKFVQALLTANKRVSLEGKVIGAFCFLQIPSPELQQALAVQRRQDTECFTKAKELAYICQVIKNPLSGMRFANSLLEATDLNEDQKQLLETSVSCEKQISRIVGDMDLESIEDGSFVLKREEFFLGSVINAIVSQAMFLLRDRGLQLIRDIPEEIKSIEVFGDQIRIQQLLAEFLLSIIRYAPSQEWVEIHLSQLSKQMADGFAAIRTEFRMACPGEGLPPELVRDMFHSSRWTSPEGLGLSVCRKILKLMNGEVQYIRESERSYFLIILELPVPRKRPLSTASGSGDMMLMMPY

Binder: B1
- binding result (SBP-fused phyA^PSM): binds
- binding result (GST-PIF3): binds

B2: GST-fused APA (PIF3 86-221 a.a.) (domain or fragment)
chain: GLSQDDDFVPWLNHHPSLDGYCSDFLRDVSSPVTVNEQESDMAVNQTAFPLFQRRKDGNESAPAASSSQYNGFQSHSLYGSDRARDLPSQQTNPDRFTQTQEPLITSNKPSLVNFSHFLRPATFAKTTNNNLHDTK
- binding result (MBP-fused phyA^OPM): binds
- binding result (MBP-fused phyB^OPM): binds
